B1: AUP1 (parent)
chain: FCASTRLPPTPLLLFPEEEATNGR
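Note: lentivirally expressed fusions sorted by FACS into six bins by GFP to DsRed ratio, PSI derived from sequencing read proportions per bin multiplied by bin number.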

Variants of B1 are the subject of this series. Kind of series: protein stability index of a GFP-peptide fusion (GPS, HEK-293T) (PSI 1-6); higher = more stable. As to conditions: c terminus: a fixed tail appended.
For the variant FCASTRLPPTALLLFPEEEATNGR [P11A], the protein stability index came to 2.39.
In the case of FCASTRLPPTRLLLFPEEEATNGR [P11R], the protein stability index is 2.06.
With FCASTRLPPTSLLLFPEEEATNGR [P11S], the protein stability index was 3.05.
In the case of FCASTRLPPTELLLFPEEEATNGR [P11E] it was 3.4; in that of FCASTRLPPTFLLLFPEEEATNGR [P11F], 2.08.
In the case of FCASTRLPPTDLLLFPEEEATNGR [P11D], the protein stability index was determined as 2.99.
Turning to FCASTRLPPTMLLLFPEEEATNGR [P11M], the protein stability index worked out at 2.6.
In the case of FCASTRLPPTTLLLFPEEEATNGR [P11T], the protein stability index came out at 2.74.
As for FCASTRLPPTPLLLIPEEEATNGR [F15I], the figure is 3.23.
In the case of FCASTRLPPTPLLLYPEEEATNGR [F15Y], the protein stability index turned out to be 2.61.
On to FCASTRLPPTPLLLSPEEEATNGR [F15S], for which the protein stability index came out at 3.45.
With FCASTRLPPTPLLLCPEEEATNGR [F15C], the protein stability index was 2.61.
With FCASTRLPPTPLLLVPEEEATNGR [F15V], the protein stability index was found to be 3.1.
For the variant FCASTRLPPTPLLLTPEEEATNGR [F15T], the protein stability index was found to be 3.74.
As for FCASTRLPPTPLLLEPEEEATNGR [F15E], the protein stability index amounted to 3.46.
Take FCASTRLPPTPLLLNPEEEATNGR [F15N]: the protein stability index was 3.44.
Turning to FCASTRLPPTPLLLQPEEEATNGR [F15Q], the protein stability index worked out at 3.35.
In the case of FCASTRLPPTPLLLFPFEEATNGR [E17F] it was 1.83.
Consider FCASTRLPPTPLLLFPYEEATNGR [E17Y], for which the protein stability index is 2.47.
As for FCASTRLPPTPLLLFPIEEATNGR [E17I], the figure is 1.93; as for FCASTRLPPTPLLLFPCEEATNGR [E17C], 1.52.
Consider FCASTRLPPTPLLLFPVEEATNGR [E17V], for which the protein stability index worked out at 2.09.
For the variant FCASTRLPPTPLLLFPGEEATNGR [E17G], the protein stability index was found to be 2.31.
In the case of FCASTRLPPTPLLLFPKEEATNGR [E17K] it was 2.25.
Consider FCASTRLPPTPLLLFPMEEATNGR [E17M], for which the protein stability index came out at 2.51.
In the case of FCASTRLPPTPLLLFPEEEGTNGR [A20G] it was 2.79.
FCASTRLPPTPLLLFPEEEMTNGR [A20M]: the protein stability index was found to be 2.88.
In the case of FCASTRLPPTPLLLFPEEENTNGR [A20N], the protein stability index was determined as 2.43.
As to FCASTRLPPTPLLLFPEEEFTNGR [A20F], the protein stability index was found to be 2.21.
On to FCASTRLPPTPLLLFPEEESTNGR [A20S], for which the protein stability index was determined as 3.21.
Turning to FCASTRLPPTPLLLFPEEETTNGR [A20T], the protein stability index came out at 2.97.
In the case of FCASTRLPPTPLRLFPEEEATNGR [L13R], the protein stability index was 3.45.
For the variant FCASTRLPPTPLYLFPEEEATNGR [L13Y], the protein stability index turned out to be 2.62.
With FCASTRLPPTPLNLFPEEEATNGR [L13N], the protein stability index turned out to be 3.12.
For the variant FCASTRLPPTPLWLFPEEEATNGR [L13W], the protein stability index came to 1.59.
For the variant FCASTRLPPTPLDLFPEEEATNGR [L13D], the protein stability index stood at 3.94.
For the variant FCASTRLPPTPLGLFPEEEATNGR [L13G], the protein stability index is 3.42.
Consider FCGSTRLPPTPLLLFPEEEATNGR [A3G], for which the protein stability index came out at 2.36.
In the case of FCISTRLPPTPLLLFPEEEATNGR [A3I] it was 2.46.
On to FCESTRLPPTPLLLFPEEEATNGR [A3E], for which the protein stability index is 3.67.
For FCNSTRLPPTPLLLFPEEEATNGR [A3N], the protein stability index worked out at 2.62.
FCPSTRLPPTPLLLFPEEEATNGR [A3P]: the protein stability index is 2.25.
In the case of FCHSTRLPPTPLLLFPEEEATNGR [A3H] it was 2.49.
Take FCKSTRLPPTPLLLFPEEEATNGR [A3K]: the protein stability index is 2.5.
On to FCMSTRLPPTPLLLFPEEEATNGR [A3M], for which the protein stability index amounted to 2.88.
As for FCQSTRLPPTPLLLFPEEEATNGR [A3Q], the protein stability index was 2.88.
Turning to FCASTRLPCTPLLLFPEEEATNGR [P9C], the protein stability index worked out at 2.
Take FCASTRLPRTPLLLFPEEEATNGR [P9R]: the protein stability index came to 2.3.
As for FCASTRLPGTPLLLFPEEEATNGR [P9G], the figure is 2.78; as for FCASTRLPHTPLLLFPEEEATNGR [P9H], 2.56; as for FCASTRLPNTPLLLFPEEEATNGR [P9N], 2.84.
For the variant FCASTRLPYTPLLLFPEEEATNGR [P9Y], the protein stability index is 2.03.
Turning to FCASTRLPKTPLLLFPEEEATNGR [P9K], the protein stability index was 2.67.
Consider FCASTRLIPTPLLLFPEEEATNGR [P8I], for which the protein stability index is 2.3.
Turning to FCASTRLTPTPLLLFPEEEATNGR [P8T], the protein stability index worked out at 2.94.
Consider FCASTRLNPTPLLLFPEEEATNGR [P8N], for which the protein stability index stood at 2.66.
On to FCASTRLMPTPLLLFPEEEATNGR [P8M], for which the protein stability index stood at 2.57.
With FCASTRLAPTPLLLFPEEEATNGR [P8A], the protein stability index was 2.48.
Turning to FCASTRLLPTPLLLFPEEEATNGR [P8L], the protein stability index came out at 1.96.
As for FCASTRLVPTPLLLFPEEEATNGR [P8V], the figure is 2.41; as for FCASTRLSPTPLLLFPEEEATNGR [P8S], 2.84; as for FCASTRLQPTPLLLFPEEEATNGR [P8Q], 3.19.
On to FCASTRLRPTPLLLFPEEEATNGR [P8R], for which the protein stability index was found to be 2.67.
As to FCASTRLPPTPLLLFPEEEATGGR [N22G], the protein stability index was found to be 2.16.
In the case of FCASTRLPPTPLLLFPEEEATAGR [N22A], the protein stability index was determined as 2.87.
As for FCASTRLPPTPLLLFPEEEATHGR [N22H], the figure is 2.95.
For FCASTRLPPTPLLLFPEEEATDGR [N22D], the protein stability index stood at 3.1.
Take FCASTRLPPTPLLLFPEEEATMGR [N22M]: the protein stability index was 2.56.
As for FCASTRLPPTPLLLFPEEEATQGR [N22Q], the figure is 3.18; as for FCASTRLPPTPLLLFPEEEATKGR [N22K], 2.75.
With FCASTRLPPTPLLLFPEEEATRGR [N22R], the protein stability index worked out at 2.73.
As to FCASTRLPPTPLLLFPEEEATWGR [N22W], the protein stability index was found to be 2.27.
In the case of FCASTRLPPTPLLLFPEEEATFGR [N22F], the protein stability index worked out at 2.18.
Regarding FCASTRLPPTPLLLFPEEEATCGR [N22C], the protein stability index was found to be 2.32.
As for FCASTRLPPTPLLLFPEDEATNGR [E18D], the figure is 2.52.
For the variant FCASTRLPPTPLLLFPEQEATNGR [E18Q], the protein stability index worked out at 2.72.
As for FCASTRLPPTPLLLFPETEATNGR [E18T], the figure is 2.2.
FCASTRLPPTPLLLFPELEATNGR [E18L]: the protein stability index stood at 2.54.
In the case of FCASTRLPPTPLLLFPEIEATNGR [E18I] it was 2.4; in that of FCASTRLPPTPLLLFPEREATNGR [E18R], 2.23; in that of FCASTRLPPTPLLLFPEYEATNGR [E18Y], 2.07.
Take FCASTRLPPTPLLLFPENEATNGR [E18N]: the protein stability index came out at 2.37.
As for FCASTRLPPTPLLLFPESEATNGR [E18S], the figure is 2.12; as for FCASTRLPPTPLLLFPEAEATNGR [E18A], 2.19; as for FCASTRLPPTPNLLFPEEEATNGR [L12N], 3.35.
In the case of FCASTRLPPTPMLLFPEEEATNGR [L12M], the protein stability index came out at 3.25.
Regarding FCASTRLPPTPYLLFPEEEATNGR [L12Y], the protein stability index was 1.97.
As for FCASTRLPPTPLLLFPEEEATNPR [G23P], the figure is 2.75; as for FCASTRLPPTPLLLFPEEEATNDR [G23D], 3.33; as for FCASTRLPPTPLLLFPEEEATNTR [G23T], 2.76.
As for FCASTRLPPTPLLLFPEEEATNMR [G23M], the protein stability index turned out to be 2.54.
On to FCASTRLPPTPLLLFPEEEATNER [G23E], for which the protein stability index came out at 3.33.
Take FCASTRLPPTPLLLFPEEEATNAR [G23A]: the protein stability index was 2.86.
Consider FCASTRLPPTPLLLFPEEEATNRR [G23R], for which the protein stability index amounted to 2.59.

The values above are taken from the supplement of paper PMC10567573.
